Values joined by “and” are separate entries in the source; they are usually repeats but may differ in a detail not shown here. Equal values may be shown once.
How the values were obtained:
[1] = biological target: full-length SARS-CoV-2 spike protein (amino acids M1-T1273 of accession number YP_009724390.1) on Ju (SARS-CoV-2, UniProt P0DTC2 14-1273); experiment: cell-based or functional assay
[2] = biological target: receptor binding domain (RBD) portion of the SARS-CoV-2 Spike protein (amino acids Arg319-Phe541) ex (SARS-CoV-2)
[3] = biological target: Human SARS Coronavirus Spike S1 Subunit Protein (His Tag) (Sino 40150-V08B1) (Human SARS Coronavirus, UniProt P59594 14-667); experiment: Luminex bead binding, supernatant

Binder | ADCP EC50 [M], Jurkat/hCD20/SARS-CoV-2 Spike cells [1] | ADCP Max (% ADCP), Jurkat/hCD20/SARS-CoV-2 Spike cells [1] | IC50 [2] | Binding signal (MFI) [3]
mAb10987 (antibody, V domains shown) VH: QVQLVESGGGVVQPGRSLRLSCAASGFTFSNYAMYWVRQAPGKGLEWVAVISYDGSNKYYADSVKGRFTISRDNSKNTLYLQMNSLRTEDTAVYYCASGSDYGDYLLVYWGQGTLVTVSS VL: QSALTQPASVSGSPGQSITISCTGTSSDVGGYNYVSWYQQHPGKAPKLMIYDVSKRPSGVSNRFSGSKSGNTASLTISGLQSEDEADYYCNSLTSISTWVFGGGTKLTVLG | 6.33e-12 M | 56.7% |  | 
mAb10989 (antibody, V domains shown) VH: QVQLVQSGAEVKKPGASVKVSCKASGYIFTGYYMHWVRQAPGQGLEWMGWINPNSGGANYAQKFQGRVTLTRDTSITTVYMELSRLRFDDTAVYYCARGSRYDWNQNNWFDPWGQGTLVTVSS VL: QSALTQPASVSGSPGQSITISCTGTSSDVGTYNYVSWYQQHPGKAPKLMIFDVSNRPSGVSDRFSGSKSGNTASLTISGLQAEDEADYYCSSFTTSSTVVFGGGTKLTVLG | 4.86e-12 M | 56% | 0.0591 nM and 0.0428 nM | 
mAb10933 (antibody, V domains shown) VH: QVQLVESGGGLVKPGGSLRLSCAASGFTFSDYYMSWIRQAPGKGLEWVSYITYSGSTIYYADSVKGRFTISRDNAKSSLYLQMNSLRAEDTAVYYCARDRGTTMVPFDYWGQGTLVTVSS VL: DIQMTQSPSSLSASVGDRVTITCQASQDITNYLNWYQQKPGKAPKLLIYAASNLETGVPSRFSGSGSGTDFTFTISGLQPEDIATYYCQQYDNLPLTFGGGTKVEIKR | 5.79e-12 M | 53.4% |  | 
mAb10954 (antibody, V domains shown) VH: EVQLVESGGGLVQPGGSLRLSCAASGITVSSNYMSWVRQAPGKGLEWVSLIYSGGSTYYADSVKGRFTISRDNSKNTLYLQMNSLRVEDTAVYYCARDHGMAAAGYNYWGQGTLVTVSS VL: DIQMTQSPSSLSASVGDRVTITCQASQDINKYLNWYQQKPGKAPKLLIYDASNLETGVPSRFSGSGSGTDFTFTINSLQPEDFATYFCQQYDNLPPAFGQGTKVEIKR |  |  |  | 15 MFI
mAb10934 (antibody, V domains shown) VH: not shown VL: DIQMTQSPSSLSASVGDRVTITCQASQDIWNYINWYQQKPGKAPKLLIYDASNLKTGVPSRFSGSGSGTDFTFTISSLQPEDIATYYCQQHDDLPPTFGQGTKVEIKR | 2.72e-12 M | 40.1% | 0.066 nM and 0.0597 nM | 
mAb10967 (antibody, V domains shown) VH: EVQLVESGGGLVQPGGSLRLSCAASGFTVSSNYMSWVRQAPGKGLEWVSVIYPGGSTFYADSVKGRFTISRDNSKNTLYLQMNSLRAEDTAVYYCARDQRDFAWGQGTLVTVSS VL: DIQMTQSPSSLSASVGDRVTITCQASQDISNYLNWYQQKPGKAPKLLIYDASNLETGVPSRFSGSGSGTDFTFTISGLQPEDIATYYCQQYDNLPPTFGQGTRLEIKR |  |  |  | 21 MFI
mAb10956 (antibody, V domains shown) VH: EVQLVESGGGLVQPGGSLRLSCAASGLTVSSNYMSWVRQAPGKGLEWVSVIYSGGSTFYADSVKGRFTISRDNSKNTLYLQMNSLRAEDTAVYYCARDLIKYGMDVWGQGTTVTVSS VL: not shown |  |  |  | 16 MFI
mAb10957 (antibody, V domains shown) VH: EVQLVESGGGLVQPGGSLRLSCAASGVTVSSNYMSWVRQAPGKGLEWVSVIYSGGSTFYADSVKGRFTISRDNSKNTLFLQMNSLRIEDTAVYYCARDLGPYGMDVWGQGTTVTVSS VL: DIQLTQSPSFLSASVGDRVTITCRASQGISSYLAWYQQKPGKAPKLLIYAASTLQSGVPSRFSGSGSGTQFILTISSLQPEDFATYYCQQLNSYPGFTFGPGTKVDIKR |  |  |  | 16 MFI

From patent US20240043504A1 (published 2024)
